Data from publication PMC3752401.

How the values were obtained:
H3K9 core mononucleosome = assay: native gel or EMSA
[1] = molecular target: H3Kc9me3 core mononucleosome; assay: native gel or EMSA
[2] = molecular target: H3Kc9me3 core mononucleosome; assay: fluorescence polarisation

Chain of Suv39/Clr4 (full length wild-type) (O60016 whole entry): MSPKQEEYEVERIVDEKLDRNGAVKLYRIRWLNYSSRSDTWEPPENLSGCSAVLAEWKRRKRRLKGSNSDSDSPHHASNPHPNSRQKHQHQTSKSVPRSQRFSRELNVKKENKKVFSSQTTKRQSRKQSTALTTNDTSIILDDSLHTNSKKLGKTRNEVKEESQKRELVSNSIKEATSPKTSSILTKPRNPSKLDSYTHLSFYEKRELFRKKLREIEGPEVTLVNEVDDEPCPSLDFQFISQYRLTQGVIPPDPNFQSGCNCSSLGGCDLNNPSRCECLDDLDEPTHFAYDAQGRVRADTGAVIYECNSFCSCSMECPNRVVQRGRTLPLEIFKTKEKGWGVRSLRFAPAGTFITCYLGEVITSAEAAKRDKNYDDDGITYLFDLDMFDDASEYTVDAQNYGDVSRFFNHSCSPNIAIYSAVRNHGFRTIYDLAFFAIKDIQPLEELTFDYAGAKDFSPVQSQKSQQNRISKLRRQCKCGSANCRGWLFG

K1/2 (H3K9 core mononucleosome): 1.8 µM
K1/2 [1]: 1.5 µM
fold sensitivity of the FP increase to the H3Kc9me3 mark over the H3K9 control [2]: > 25 fold
Substance: Suv39/Clr4 (full length wild-type) (from UniProt O60016 1-490) (enzyme)
